In the nanobody polyreactivity screen of Harvey et al. (2022):

Assay: yeast display, Sf9 membrane polyspecificity reagent, FACS + sequencing; frameworks hold sequencing errors
Method in brief: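 A synthetic nanobody library was expressed on Saccharomyces cerevisiae BJ5465 by galactose induction for 36–48 hours. The library was stained for 1 hour at 4 °C with 10% biotinylated, detergent-solubilized Sf9 membrane reagent and enriched with streptavidin microbeads before FACS. Low and high (top ~1%) gates were set on anti-HA fluorescence for expression and streptavidin fluorescence for reagent binding, and each polyreactivity label reflects the gate of origin.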

| Sequence | polyreactivity (PSR sort gate) |
| --- | --- |
| QVQLVESGGGLVQAGGSLRLSCAASGRTFQTNVMGWYRQAPGEERELVAAITLSGGSTNYADSVKGRFSISRDNAMYTVYLQMNSLKPEDTAVYYCNAERRYRHQWTPHYEYDYWGQGTQVTVSS | low polyreactivity |
| QDQLVESGGGLVQAGGSLRLSFAAYGSTFIVYAMGWYRHAPGKERDLVAAISLDGGSTYYADSVKGRFTISLDNAKNNVYLQMNSLKPEDTAVYYCNADYYANSITYDSWGQGTQVTVSS | low polyreactivity |
| QVQLVESGGGLVQAGGSLRLSCAASGSIFEPNAMGWYRQAPGKEREFVAAISGSGGSTYYADSVKGRFTISRDNAKNTVYLQMNSLKPEDTAVYYCATRGKRSYFRTFYYWGQGTQVTVSS | high polyreactivity |
| QVPHVESGGGLVQAGGSLRLSSAASGFIHKSYTMGWYRQAPGKERELVAAISRSGASKYYAYSVKGRFTISRDNAKNTVYLQMNSLKPEDTAVYYCNRRRHNIGTGEYNYWGQGTQVTVSS | high polyreactivity |
| QVQLVESGGGVVQAGGSLRLSCAASGSIFDGYARGWYRQAPGKERELVAAITRDGGSTHYADSVKGRFTISRDNAKNTVYLEMNSLKPEDTAVYYCASRDHAFRYYRNPFKGKYDYWGQGTQVTVSS | low polyreactivity |
| QVQLVESGGGLVQAGGSLRLSCAASGGIFSTYTMGWYRQAPGKERELVAAISQSGGTTYYADSVKGRFTISRDNAKNTVYLQMNSLKPEDTAVYYCAAEPTQADYDYWGQGTQVTVSS | low polyreactivity |
| QVQLVESGGGLVQAGGSLRLSCAASGSIFPRYAMGWYRQAPGKERELVAAISWSGGSTYYADSVKGRFTISRDNAKNTFYLQMNSLKPEDTAVYYCAALSKHVQVAYDPWGQGTQVTVSS | high polyreactivity |
| QVQLVESGGGLVQAGGSLRLICAASGLIFKVYAMGWYRQAPGKERELVAAITYSGGSTDYADSVKGRFTISRDNAKNTVYLQMNSLKPEDTAVYYCNVEKVGHVNSYGYDYWGQGTQVTVSS | low polyreactivity |
| QVQLVESGVGLVQAGGSLRLSCAPSGSTFWVNGMGWYRPAPGKERELVASISQSGDNTYYADSVKGRFTISRDNAKNTVYLQMNSLKPEDTAVSYCATRYQYGGFLYYRFDDWGQGTQVTVSS | high polyreactivity |
| QVQLVESGGGLVQAGGSLRLSCAASGFIFRAYTMGWYRQAPGKERELVAGITSGGSTYYADSVKGRFTISRDNAKNTVYLQMNSLKPDDTAVYYCATYYRRWTPIPYEYWGQGTQVTVSS | high polyreactivity |
| QVQLVESGGGLVQAGGSLRLSCAASGIIFFANAMGWYRQAPGKERELVASISASGGNTYYADSVKGRFTISRDNAKNTVYLQMNSLKPEDTAVYYCAARARRSQSISLKYYYWGQGTQVTVSS | high polyreactivity |
| QVQLVESVGGLVQAGGSLRLSCAASGRPFKKYAMGCYRQAPGKERALVAAITGSGGSTYYADAVKGRFTSSRDNAKKTVYLQMNSLKPEDTAVYYCAAYAYGVWHSHDGGNYWGQGTQVTVSS | low polyreactivity |
| QVQLVESGGGVVQAGGSLRLSCAASGSTFFYYAMGWYRQAPGKERELVATIRGSAGRTYYADSVKGRFTISRDHAKYTVYLQMNCLKPEDTAVYYCARRYWPGSAYWIYDYWGQGTQVTVSS | high polyreactivity |
| QVQLVESGGGLVQAGGSLRLICAATGFTFHNNVMGWYRQAPGKERELVATISKSGGSTYYADSVKGRFTISRDNAKNTVYLQMNRLKPEDTAVYYCARRYRDYGRYGYWGQGTQVTVSS | high polyreactivity |
| QVQLVESGGGLVQAGGSLRLSCAASGSTFEDYVMGWYRQAPGKERELVAAITSGDNTKYADSVKGRFTISRDNAKNTVYLQMNSLKPEDTAVYYCNADFPDVRSEYDYWGQGTQVTVSS | high polyreactivity |
| QVQLVESGGGLVQAGGSLRLSCAASGRIFEGYAMGWYRPAPGKQRELVAAISKSGGRTNYADSVKGRFTISRDNAKNTVYLQMNSLKPEDSAVYYCNAGIKYWGSDFFYWGQVTQVTVSS | high polyreactivity |
| QVQLVESGGGLVQAGGSLRLSCSSSGLTLYRYAMGWYRQAPGKERELVAGISWGGGSTYYADSVKGRFTISRDNAKNTVFLQMNSLKPEGNAVYYCAAGRLLYIPRYYYWGQGTQVTVSS | high polyreactivity |
| QVQLVESGGGLVQAGGSLRLICAASGFIFRVYAMGWYRQAPGKERALVATITYDGGRTYYADSVKGRFTISRDNAKNTVYLQMNSLKPEDTAVFGYWGQGTQVTVSS | low polyreactivity |
| QVQLVESGGGLVQAGGSLRLSCAASGFTFWSYAMGWYRQAPGKERELVAAISSSGDSTYYADSVKGRFTISRDNAKNTVYLQMNSLKPEDTAVYYCAAGTHTDYGRYYYWGQGTQVTVSS | low polyreactivity |
| QVQLVESGGGLVQAGGSLRLSCAASGRIFSGYAMGWYRQAPGKERELVAAITSRSGSTYYADSVKGRFTISRDNAKNTVYLQMNSLKPEDTAVYYCAAEYVRFYWYTSAYWGQGTQVTVSS | low polyreactivity |
| QVQLVESGGGLVQAGGSLRLSCAASGRIFYTYVMGWYRQAPGKERELVAAINRSGGTTYYADSVKGRFTISRDNAKNTGYLPMNSLKPEDTAVYYCNATLPDYWPYYYYQGGDDYWGQGTQVTVSS | low polyreactivity |
| QVQLEESGGGLVQAGGRLRLSCAASVSIFGVYTMGWYRPAPGKERELVAAIRGVGSTNYADSVKGRFTISRDNAKNTVYLQMKSLKTEDTAVYYCAARYAYGMWGQGTHVTVSS | low polyreactivity |

| Sequence | polyreactivity (PSR sort gate) |
| --- | --- |
| QVQLVESGGGLVQAGGSLRLSCAASGRIFYSYAMGWYRQAPGKERELVAAISRSGGRTYYADSVKGRFTISRDNAKNTVYLQMNSLKPEDTAVYYCNAYRPRFSTRVDYWGQGTQVTVSS | high polyreactivity |
| QVQLVESGGGLVQAGGILLLSCAASGRTFRVNTMGWYRQAPGTESELVAAISYSGASTYYADSVKGRFTISRDNAKNTVYLQMNSLKPEDTAVYYCAAAVGVALNDYWGQGTQVTVSS | high polyreactivity |
| QVQLVESGGGLVQAGGSLRLSCAASGGTFSAYAMGWYRQAPGKERELVAAISYRGGRTYYADSVKGRFTISRDNAKNTVYLQMNSLKPEDTAVYYCNARRGSATHSVTARRGYWGQGTQVTVSS | high polyreactivity |
| QVQLVESGGGLVQAGGSLRLSCAASGFTFISNAMGWYRQAPGKERELVAAISGRGGRTYYADSVKGRFTISRDNAKNTVYLQMNSLKPEDTAVYYCNAVFRKLHYDYWGQGTQVTVSS | high polyreactivity |
| QVQLVESGGGLVQAGGSLRLSCAASGRTFGLNAMGWYRQAPGKERELVAAISSSGGSTYYADSVKGRFTISRDNAKNTVYLQMNSLKPEDTAVYYCAKVLYRYGTAYYYWGQGTQVTVSS | high polyreactivity |
| QVHLVESGGGLVQAGVSLRLSCAASGLTFGPYAMGWYRQAPGKERELVAAITSGGNTNYADSVKGRFTISRDNAKNTVYLQMNSLKPEDTAVYYCATSYYLAYRSITPYDYWGQGTQVTVSS | low polyreactivity |
| QVQLVESGVGLVQAGGSLRLSCAASGLTFDYNAMGWYRQAPGKERELVARISRSGGTTYYADSVKGRFTISRDNAKNTVYLQMNSLKPEDTAVYYCAAERYYVGAYGYWGQGTQVTVSS | high polyreactivity |
| QVQLVESGGGLVQAGGSLRLSCAASGFTFRKNVMGWYRQATGKERELVAVISSSGGSTYYADSVKGRFTISRDNAKNTVYLPMNRLKPEVTAVYYCNAGRYGSNLEYWGQGTQLTVSS | low polyreactivity |
| QVQLVESGGGLVQAGGSLRLSCDASGFTLAWNARGWSRQAPRKERELVATISRSGSSTSYADSVKGRFTISRDNAKNTVYLQMNSLKPEDTAVYYCAKSGRYGFWGQGTQVTVSS | high polyreactivity |
| QVQLVESGGGLVQAGGSLRLSCAASGFTFGPNAMGWYRQAPGKEREFVAAISWSGGSTYYADSVKGRFTISRDNAKNTVYLQMNSLKPEDTAVYYCAARYRYTRSGTMGYWGQGTQVTVSS | high polyreactivity |
| QVQLVESGGGLVQAGGSLRLTCAASGRTFNIYAMGWYRQAPGKERELVAAITSGGSTNYADSVKGRFTISRDNAKNTVYLQMNSLKPEDTAVYYCNARYFRGYDYWGQGTQVTVSS | high polyreactivity |
| QVQLVESGGGLVQAGGSLRLSCAASGRTFRRYAMGWYRQAPGKERELVAGISRSGVSSYYADSVKGRFTISRDNAKNTVYLQMNSLKPEDTAVYYCATRYVPTLRSSGDYWGQGTQVTVSS | high polyreactivity |
| QVKLVESGGGLVQAGGSLRLSCAASGSTFWGYAMGWYRQEPGKERELVATITTGGSTNYADSVKGRFTISRDNAKNTVYLQMNSLKPEDTAVYYCAKEVDPGSITSYGAGAHFGFDYWGQGTQVTVSS | low polyreactivity |
| QVQLVESGGGLVQAGGSLRLSCAASGSIFGGNAMGWYRQAPGKERELVATITSAGSTYYADSVKGRFTISRDNAKNTVYLQMNSLKPEDTAVYYCAADPTYYWRYYPTRLYVEYDYWGQGTQVTVSS | low polyreactivity |
| QVQLEESGGGLVQAGGSLRLSCAASGRTFKYYAMGWYIQAPGKERELVAAISWSGGDTYYADSVKGRFTISRDNAKNTVYLQMNSLKQEDTAVYYCAKYPWYRYPSYEYWGQGTQVTVSS | high polyreactivity |
| QVQLVESGGGLVQAGGSLRLSCAASGIIFCRYAMGWYTQAPGKERELVAAISSSGSTYYADSVKGRFTISRDNATNTVYLQMNSLKPEDTAVYYCAAYSYPAGEYDYWGQGTQVTVSS | low polyreactivity |
| QVQLVESGGGLVQAGGSLRLSCDASGFIFDEYAMGWYRPAPGEERELVAAINWRGGSTYYADSVKGRFTISRDNAKNTVYLQMNSLKPEDTAVYYCAARNVYVWYDYWGQGTQVTVSS | low polyreactivity |
| QVQLVESGGGLVQAGGSLRLSCAASGRIFVANAMGWYRQAPGKERELVAAISSSGSTNYADSVKGRFTISRDNAKNTVYLQMNSLKPEDTAVYYCAKQHLSTGSWFDPFEMDYWGQGTQVTVSS | low polyreactivity |
| QVQLVESGGGLVQAGGSLRLSCAASGFLFYYNAMGWYRQAPGKERELVATSTSGGSTNYADSVKGRFTISRDNAKNTVYLQMNSLKPEDTAVYYCAAGHSWVYGYDYWGQGTQVTVSS | low polyreactivity |
| QVQLVESGGGLVQAGGSLRLSCAASGRTFIIYAMGWYRQAPGKERELVATISIGGSTYADSVKGRFTISRDNAKNTVYLQMNSLKPEDTAVYYCAARGRKYPPRDYWGQGPQVTVSS | high polyreactivity |
| QGQLVESGGGLVQAGGSLRLSCAASGITFYSYAMGWYRQAPGKERELVAAITLTGGTTYYADSVKGRFTISRDNAKNTVYLQMNSLKPEDTAVYYCNSDYGGGVDGTYKYYSEYDYWGQGTQVTVSS | low polyreactivity |
